Publication PMC8054141, “The molecular basis of the inhibition of CaV1 calcium-dependent inactivation by the distal carboxy tail” (The Journal of Biological Chemistry, 2021)

Target: T1, Cerulean-ICDI1.4 (human)
T1 construct: CaV1.4 alpha1 subunit, human clone NP005174.2; ICDI domain of the distal carboxy tail; Fluorophore cloned KpnI/NotI and the channel peptide NotI/XbaI in pcDNA3, so Cerulean probably precedes the peptide; also called ICDI domain from CaV1.4; source: HEK293, transiently transfected (PEI), in live cells
Assay: FRET or BRET; live-cell FRET two-hybrid (3^3-FRET) in HEK293 cells on an inverted microscope; Venus-tagged peptide as acceptor, Cerulean-tagged peptide as donor; FRET ratio of each cell against free donor concentration; Tyrode's bath with 2 mM CaCl2, pH 7.4; relative Kd calibrated and converted to Ka = 1/Kd
Settings: partners not purified

B1: Venus-PreIQ3-IQ-A1.3 F[−2]A (domain or fragment)
chain: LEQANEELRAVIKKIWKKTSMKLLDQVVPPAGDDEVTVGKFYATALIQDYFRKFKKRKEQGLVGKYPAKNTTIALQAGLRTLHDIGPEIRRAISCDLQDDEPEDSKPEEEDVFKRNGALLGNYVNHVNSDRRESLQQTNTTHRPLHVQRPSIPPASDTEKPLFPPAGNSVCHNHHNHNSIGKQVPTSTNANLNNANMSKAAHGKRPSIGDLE
modifications: F[-2]A, two residues before the canonical IQ isoleucine (inferred as 1656 on P27732). Limits approximate, as for m1. Venus tag omitted.
Binder B1 has a Ka of 5.8e+06 M⁻¹.

B2: Venus-PreIQ3-IQ-A1.3 (domain or fragment)
chain: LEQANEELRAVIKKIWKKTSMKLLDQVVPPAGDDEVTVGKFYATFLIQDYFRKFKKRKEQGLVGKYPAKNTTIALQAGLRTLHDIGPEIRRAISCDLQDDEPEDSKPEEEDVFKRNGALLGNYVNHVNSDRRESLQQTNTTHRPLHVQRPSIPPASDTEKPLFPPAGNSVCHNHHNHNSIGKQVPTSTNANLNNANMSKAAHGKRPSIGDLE
modifications: Limits approximate: about 30 residues PreIQ3 + IQ + about 150 residues A region. Position of the IQ isoleucine (I[0]) on P27732 was inferred as 1656; the paper's numbering (KPY1626, ALQ1635) implies …
With B2 the Ka was 2.14e+07 M⁻¹.
